Measurements taken from patent US20050287542A1 (YALE UNIVERSITY, published 2005).
Square brackets hold non-standard residues; d marks the D form. Primed or numbered codes have the meaning given here. Ends that are not written are not given here. * marks the point of attachment. acetamidofluorescein = acetamidofluorescein label attached to the side chain of a C-terminal cysteine residue (made by modifying the cysteine with 5-iodoacetamidofluorescein); acetamidofluorescein″ = acetamidofluorescein (5-iodoacetamidofluorescein attached to the C-terminal Cys); Fluorescein(5-NHCOCH2) = O=C(C*)Nc1ccc2c(c1)C(=O)OC21c2ccc(O)cc2Oc2cc(O)ccc21; pS = N[C@@H](COP(=O)(O)O)C(=O)O

Columns and labels:
[1] = molecular target: carbonic anhydrase II (Sigma); test: fluorescence polarization, carbonic anhydrase II
[2] = molecular target: T1, CBP KIX variant L599A (UniProt P45481 586-665, limits assumed); test: fluorescence polarization
T1 construct: domain: KIX

[3] = molecular target: T2, CBP KIX variant K606A (UniProt P45481 586-665, limits assumed); test: fluorescence polarization
T2 construct: domain: KIX

[4] = molecular target: T3, CBP KIX variant Y658F (UniProt P45481 586-665, limits assumed); test: fluorescence polarization
T3 construct: domain: KIX

[5] = molecular target: T4, CBP KIX variant Y650A (Example 20) (UniProt P45481 586-665, limits assumed); test: fluorescence polarization
T4 construct: domain: KIX

[6] = molecular target: T5, CBP KIX variant I657A (UniProt P45481 586-665, limits assumed); test: fluorescence polarization
T5 construct: domain: KIX

[7] = molecular target: T6, CBP KIX variant I660A (UniProt P45481 586-665, limits assumed); test: fluorescence polarization
T6 construct: domain: KIX

[8] = molecular target: T7, CBP KIX variant E655A (UniProt P45481 586-665, limits assumed); test: fluorescence polarization
T7 construct: domain: KIX

[9] = molecular target: T8, CBP KIX variant Q661A (UniProt P45481 586-665, limits assumed); test: fluorescence polarization
T8 construct: domain: KIX

[10] = molecular target: T9, CBP KIX variant LL652-3AA (UniProt P45481 586-665, limits assumed); test: fluorescence polarization
T9 construct: domain: KIX

[11] = molecular target: T10, CBP KIX variant Y658A (UniProt P45481 586-665, limits assumed); test: fluorescence polarization
T10 construct: domain: KIX

[12] = molecular target: T11, CBP KIX variant K662A (UniProt P45481 586-665, limits assumed); test: fluorescence polarization
T11 construct: domain: KIX

[13] = molecular target: T12, CBP KIX variant L603A (UniProt P45481 586-665, limits assumed); test: fluorescence polarization
T12 construct: domain: KIX

[14] = molecular target: calmodulin (Sigma); test: fluorescence polarization, calmodulin
Method: (§1) Binding reactions containing serially diluted target protein and 25-50 nM of fluorescein-labeled peptides (peptide^Flu) were incubated for 30 min at 25° C. Each point represents the average polarization of two to three independent samples; error bars denote standard error. […] Circular and triangular symbols indicate that HisKIX was used as the target protein; the symbols are colored as in FIG. 9 with the exception of the points for peptide C^U, which are in orange for clarity. Square symbols indicate that carbonic anhydrase was used as the target protein. […] Circular and triangular symbols indicate that HisKIX was used as the target protein, and the symbols are colored as in FIG. 9. Square symbols indicate that calmodulin was used as the target protein.

[15] = molecular target: calmodulin (Sigma); test: fluorescence polarization, calmodulin (text differs from Table 2)
Method: 6) Fluorescence polarization—Fluorescence polarization experiments were performed with a Photon Technology International QuantaMaster C-60 spectrofluorimeter at 25° C. in a 1 cm pathlength Hellma cuvette. […] Briefly, an aliquot of fluorescently labeled peptide was added to a final concentration of 25-50 nM and the binding reaction was incubated for 30 min at 25° C. Thirty minutes was a sufficient length of time for the binding reaction to reach equilibrium, as judged by an absence of change in the observed polarization value of the sample with the highest HisKIX concentration over 1 h. […] For specificity measurements, carbonic anhydrase II (Sigma) or calmodulin (Sigma) was used as the target protein in place of HisKIX, and fluorescently labeled peptide was used at a final concentration of 50 nM.

[16] = molecular target: T13, wild type CBP KIX (Example 20) (UniProt P45481 586-665, limits assumed); test: fluorescence polarization
T13 construct: domain: KIX

[17] = molecular target: T14, HisKIX (His-tagged CBP KIX domain) (UniProt P45481 586-672); test: fluorescence polarization; end tied to the member by the Kd of Table 1
T14 construct: range 586-672; not shown: amino-terminal hexahistidine tag of pET15b

[18] = molecular target: carbonic anhydrase II (Sigma); test: fluorescence emission change of labelled peptide, PBS
[19] = molecular target: calmodulin (Sigma); test: fluorescence emission change of labelled peptide, HEPES/KCl/CaCl2 buffer
[20] = molecular target: carbonic anhydrase II (Sigma); test: fluorescence polarization
Method: as §1

[21] = molecular target: T14, HisKIX (His-tagged CBP KIX domain); test: fluorescence polarization
[22] = molecular target: T14, HisKIX (His-tagged CBP KIX domain); test: fluorescence polarization, HisKIX, 25 C
[23] = molecular target: calmodulin (Sigma); test: fluorescence polarization
Method: as §1

[24] = molecular target: T14, HisKIX (His-tagged CBP KIX domain); test: fluorescence polarization; remark: listed apart in the source
Method: as §1

[25] = molecular target: calmodulin (Sigma); test: fluorescence polarization; remark: listed apart in the source
[26] = molecular target: T14, HisKIX (His-tagged CBP KIX domain); test: fluorescence polarization competition: 25 nM fluorescein-labelled PPKID4^P on 1.5 uM HisKIX, unlabelled KID-AB^P titrated
Method: Each point represents an average of three independent samples; the error bars denote standard error.
6) Fluorescence polarization—Fluorescence polarization experiments were performed with a Photon Technology International QuantaMaster C-60 spectrofluorimeter at 25° C. in a 1 cm pathlength Hellma cuvette. […] Briefly, an aliquot of fluorescently labeled peptide was added to a final concentration of 25-50 nM and the binding reaction was incubated for 30 min at 25° C. Thirty minutes was a sufficient length of time for the binding reaction to reach equilibrium, as judged by an absence of change in the observed polarization value of the sample with the highest HisKIX concentration over 1 h.

[27] = molecular target: T14, HisKIX (His-tagged CBP KIX domain); test: fluorescence polarization competition; displaces 25 nM fluorescein-labelled PPKID6^U from 3.0 µM HisKIX
[28] = molecular target: T14, HisKIX (His-tagged CBP KIX domain); test: fluorescence polarization competition; displaces 25 nM fluorescein-labelled PPKID4^P from 1.5 µM HisKIX
[29] = molecular target: T15, GST-KIXY650A (Y650A variant of CBP KIX) (UniProt P45481 586-665, limits assumed); test: fluorescence polarization
T15 construct: domain: KIX; not shown: GST tag
T15 sequence (P45481 586-665 Y650A limits assumed): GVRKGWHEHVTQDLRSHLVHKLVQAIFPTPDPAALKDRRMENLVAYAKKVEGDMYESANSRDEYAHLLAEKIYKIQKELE

T14 sequence (P45481 586-672): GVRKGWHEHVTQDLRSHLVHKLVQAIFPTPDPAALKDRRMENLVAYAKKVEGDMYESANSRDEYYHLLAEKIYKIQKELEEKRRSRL
T13 sequence (P45481 586-665 limits assumed): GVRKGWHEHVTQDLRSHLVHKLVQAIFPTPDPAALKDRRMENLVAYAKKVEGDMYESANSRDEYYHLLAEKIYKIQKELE
carbonic anhydrase II (Sigma), sequence (P00921 2-260): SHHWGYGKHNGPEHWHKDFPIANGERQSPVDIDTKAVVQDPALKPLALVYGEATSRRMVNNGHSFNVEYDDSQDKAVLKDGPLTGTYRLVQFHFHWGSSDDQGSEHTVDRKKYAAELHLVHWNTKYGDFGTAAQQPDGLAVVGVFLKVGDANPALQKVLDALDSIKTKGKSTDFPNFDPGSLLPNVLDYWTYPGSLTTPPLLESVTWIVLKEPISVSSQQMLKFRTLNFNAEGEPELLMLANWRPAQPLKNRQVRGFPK
T6 sequence (P45481 586-665 I660A limits assumed): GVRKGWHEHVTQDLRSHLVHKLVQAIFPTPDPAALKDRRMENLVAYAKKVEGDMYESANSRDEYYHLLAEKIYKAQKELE
T7 sequence (P45481 586-665 E655A limits assumed): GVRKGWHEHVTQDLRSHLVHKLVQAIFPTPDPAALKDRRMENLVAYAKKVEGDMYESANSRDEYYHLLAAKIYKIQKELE
T4 sequence (P45481 586-665 Y650A limits assumed): as the sequence (P45481 586-665 Y650A limits assumed) above
T9 sequence (P45481 other isoform, or with tags, fused parts or gaps mutant limits assumed): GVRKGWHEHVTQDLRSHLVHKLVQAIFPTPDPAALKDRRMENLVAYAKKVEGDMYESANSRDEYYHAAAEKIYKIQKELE
T11 sequence (P45481 586-665 K662A limits assumed): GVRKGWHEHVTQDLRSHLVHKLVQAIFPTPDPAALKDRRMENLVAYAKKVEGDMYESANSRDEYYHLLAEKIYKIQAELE
T3 sequence (P45481 586-665 Y658F limits assumed): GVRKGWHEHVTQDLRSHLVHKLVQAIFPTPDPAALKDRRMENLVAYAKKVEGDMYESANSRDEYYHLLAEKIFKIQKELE
T8 sequence (P45481 586-665 Q661A limits assumed): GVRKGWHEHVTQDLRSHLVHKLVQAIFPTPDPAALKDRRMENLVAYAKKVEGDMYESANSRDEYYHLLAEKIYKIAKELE
T1 sequence (P45481 586-665 L599A limits assumed): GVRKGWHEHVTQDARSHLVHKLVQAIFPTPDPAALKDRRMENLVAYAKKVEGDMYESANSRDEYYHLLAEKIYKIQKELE
T5 sequence (P45481 586-665 I657A limits assumed): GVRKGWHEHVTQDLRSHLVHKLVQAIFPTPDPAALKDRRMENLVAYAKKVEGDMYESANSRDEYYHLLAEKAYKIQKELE
T12 sequence (P45481 586-665 L603A limits assumed): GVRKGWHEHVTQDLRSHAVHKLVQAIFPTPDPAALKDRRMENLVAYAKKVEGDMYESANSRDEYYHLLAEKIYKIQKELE
T10 sequence (P45481 586-665 Y658A limits assumed): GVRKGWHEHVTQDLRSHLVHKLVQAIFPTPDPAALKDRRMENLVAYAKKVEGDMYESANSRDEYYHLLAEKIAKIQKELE
T2 sequence (P45481 586-665 K606A limits assumed): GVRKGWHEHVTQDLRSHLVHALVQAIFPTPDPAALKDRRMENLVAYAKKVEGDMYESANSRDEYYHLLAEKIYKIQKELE

B1: PPKID4^P (designed binder)
peptide: GPSQPTYPGDDAPVRRL[pS]FFYILLDLYLDAPGVC(acetamidofluorescein)-NH2
notes: also called PPKID4 (phosphorylated); wild type PPKID4^P
Kd [1]: 106 µM
ΔΔG against wild type CBP KIX [2]: 2.43 kJ/mol
ΔΔG against wild type CBP KIX [3]: 4.06 kJ/mol
ΔΔG against wild type CBP KIX [4]: 4.6 kJ/mol
ΔΔG against wild type CBP KIX [5]: 3.97 kJ/mol
ΔΔG against wild type CBP KIX [6]: 3.72 kJ/mol
ΔΔG against wild type CBP KIX [7]: 1.46 kJ/mol
ΔΔG against wild type CBP KIX [8]: -0.293 kJ/mol
ΔΔG against wild type CBP KIX [9]: 1.46 kJ/mol
ΔΔG against wild type CBP KIX [10]: 3.89 kJ/mol
ΔΔG against wild type CBP KIX [11]: 4.6 kJ/mol
ΔΔG against wild type CBP KIX [12]: 4.6 kJ/mol
ΔΔG against wild type CBP KIX [13]: 4.18 kJ/mol
Kd [14]: 52 µM
Kd [15]: 51 µM

B2: PPKID4^P variant P5A (designed binder)
peptide: H-GPSQATYPGDDAPVRRL[pS]FFYILLDLYLDAPGVC(Fluorescein(5-NHCOCH2))-NH2
ΔΔG against wild type PPKID4^P [16]: 1.26 kJ/mol

B3: PPKID4^P variant L24A (designed binder)
peptide: H-GPSQPTYPGDDAPVRRL[pS]FFYILADLYLDAPGVC(Fluorescein(5-NHCOCH2))-NH2
ΔΔG against wild type PPKID4^P [16]: 1.59 kJ/mol

B4: PPKID4^P variant F20A (designed binder)
peptide: H-GPSQPTYPGDDAPVRRL[pS]FAYILLDLYLDAPGVC(Fluorescein(5-NHCOCH2))-NH2
ΔΔG against wild type PPKID4^P [16]: 3.56 kJ/mol

B5: PPKID4^P variant L17A (designed binder)
peptide: H-GPSQPTYPGDDAPVRRA[pS]FFYILLDLYLDAPGVC(Fluorescein(5-NHCOCH2))-NH2
ΔΔG against wild type PPKID4^P [16]: 0.293 kJ/mol

B6: PPKID4^P variant Y27A (designed binder)
peptide: H-GPSQPTYPGDDAPVRRL[pS]FFYILLDLALDAPGVC(Fluorescein(5-NHCOCH2))-NH2
ΔΔG against wild type PPKID4^P [16]: 4.02 kJ/mol

B7: PPKID4^P variant L28A (designed binder)
peptide: H-GPSQPTYPGDDAPVRRL[pS]FFYILLDLYADAPGVC(Fluorescein(5-NHCOCH2))-NH2
ΔΔG against wild type PPKID4^P [16]: 0.753 kJ/mol

B8: PPKID4^P variant P8A (designed binder)
peptide: H-GPSQPTYAGDDAPVRRL[pS]FFYILLDLYLDAPGVC(Fluorescein(5-NHCOCH2))-NH2
ΔΔG against wild type PPKID4^P [16]: 1.38 kJ/mol

B9: PPKID4^P variant P2A (designed binder)
peptide: H-GASQPTYPGDDAPVRRL[pS]FFYILLDLYLDAPGVC(Fluorescein(5-NHCOCH2))-NH2
ΔΔG against wild type PPKID4^P [16]: 0.879 kJ/mol

B10: PPKID1^U (designed binder)
peptide: GASDMTYWGDDAPVRRLSFFYILLDLYLDAPGVC(acetamidofluorescein″)-NH2
notes: also called PPKID1 (unphosphorylated)
ΔΔG against peptide C^U [17]: 0.418 kJ/mol

B11: p4099, fluorescein-labelled (designed binder)
peptide: GPSQPTYPGDDAPVEDLIRFVGRLLAYFGDTINRYC(5‑iodoacetamidofluorescein)-NH2
notes: p4121-flu tied to p4099 by order and mass difference only; also called p4099 (GAGT); p4121-flu
Kd [18]: 8.6 µM
Kd [19]: 25 µM

B12: peptide C^U (peptide)
peptide: RRLSFFYILLDLYLDAPGVC(acetamidofluorescein)-NH2
Krel = Kd (CA)/Kd (HisKIX) [20]: 3
ΔΔG against KID-B^U [21]: ≥ -6.28 kJ/mol

B13: peptide C^P (chimeric α-helical portion of the PPKID peptides, residues 15-33, phosphorylated) (peptide)
peptide: RRL[pS]FFYILLDLYLDAPGVC(acetamidofluorescein)-NH2
Kd [22]: 2.4 µM
Krel = Kd (CA)/Kd (HisKIX) [20]: 40
Krel = Kd (CalM)/Kd (HisKIX) [23]: 74
Kd [24]: 2.4 µM
Kd [14]: 178 µM
fold lower affinity than PPKID4^P [25]: 4 fold
ΔΔG against KID-B^P [21]: -7.53 kJ/mol

B14: unlabeled KID-AB^P (peptide)
peptide: TDSQKRREILSRRP[pS]YRKILNDLSSDAPGVC-NH2
notes: also called CREB KID^P
IC50 (read off the curve) [26]: ~3 µM
IC50 [27]: 2.4 µM
IC50 [28]: 3.2 µM

B15: PPKID6 S18E (designed binder)
peptide: GISWPTFEGDDAPVRRLEFFYILLDLYLDAPGVC(acetamidofluorescein″)-NH2
ΔΔG against PPKID6^U [21]: 5.02 kJ/mol

B16: PPKID6^P (designed binder)
peptide: GISWPTFEGDDAPVRRL[pS]FFYILLDLYLDAPGVC(acetamidofluorescein″)-NH2
notes: also called PPKID6 (phosphorylated)
ΔΔG upon phosphorylation [21]: -2.09 kJ/mol

B17: PPKID6^U (designed binder)
peptide: GISWPTFEGDDAPVRRLSFFYILLDLYLDAPGVC(acetamidofluorescein)-NH2
notes: also called PPKID6 (unphosphorylated)
Kd [1]: 79 µM
ΔΔG against wild type CBP KIX [2]: 4.6 kJ/mol
ΔΔG against wild type CBP KIX [3]: 1.97 kJ/mol
ΔΔG against wild type CBP KIX [4]: 4.06 kJ/mol
ΔΔG against wild type CBP KIX [5]: 2.18 kJ/mol
ΔΔG against wild type CBP KIX [6]: 4.6 kJ/mol
ΔΔG against wild type CBP KIX [7]: 5.86 kJ/mol
ΔΔG against wild type CBP KIX [8]: 2.85 kJ/mol
ΔΔG against wild type CBP KIX [9]: -0.669 kJ/mol
ΔΔG against wild type CBP KIX [10]: -3.35 kJ/mol
ΔΔG against wild type CBP KIX [11]: 2.85 kJ/mol
ΔΔG against wild type CBP KIX [12]: 2.97 kJ/mol
ΔΔG against wild type CBP KIX [13]: 3.81 kJ/mol
Krel = Kd (CA)/Kd (HisKIX) [20]: 53
Krel = Kd (CalM)/Kd (HisKIX) [23]: > 112
Kd [14]: > 168 µM
Kd [29]: 0.712 µM

B18: Bak peptide, fluorescein-labelled (Bak-flu) (peptide)
peptide: GQVGRQLAIIGDDINRYC(5‑iodoacetamidofluorescein)-NH2
notes: also called Bak BH3 peptide; Bak 72-94
Kd [18]: 22 µM
Kd [19]: 25 µM

B19: PPKID3^U (designed binder)
peptide: GASPHTSSGDDAPVRRLSFFDILLDLYLDAPGVC(acetamidofluorescein″)-NH2
notes: also called PPKID3 (unphosphorylated)
ΔΔG against peptide C^U [17]: -2.93 kJ/mol
